Assay: Complete blood count (CBC) after StcE injection
Format: in vivo, mouse
Conditions: 3 h, C57BL/6, n=1
Method: In vivo toxicity studies. 10-week-old C57BL/6 mice (bred in-house) were injected with PBS or StcE (0.15 mg/kg or 15 mg/kg) via intravenous injection. 9-week-old female BALB/cJ mice (Jackson Labs) were injected with PBS or 10 mg/kg αHER2-eStcE via intraperitoneal injection. Mice were submitted to the Animal Diagnostic Lab at Stanford University for necropsy and complete blood count (CBC) analyses 3 h post injection.

StcE: secreted protease of C1 esterase inhibitor, zinc metalloprotease pan mucinase from E. coli O157:H7; SEQ ID NO:1
Basophil absolute (StcE 0.15 mg/kg I.V.): 0
Basophils (StcE 0.15 mg/kg I.V.): 0%
Eosinophil absolute (StcE 0.15 mg/kg I.V.): 44
Eosinophils (StcE 0.15 mg/kg I.V.): 1%
Hematocrit (HCT) (StcE 0.15 mg/kg I.V.): 45.5%
Hemoglobin (HGB) (StcE 0.15 mg/kg I.V.): 14 gm/dL
Immature reticulocyte fraction (IRF) (StcE 0.15 mg/kg I.V.): 54.9%
Low fluorescence reticulocytes (LFR) (StcE 0.15 mg/kg I.V.): 45.1%
Lymphocyte absolute (StcE 0.15 mg/kg I.V.): 4085
Lymphocytes (StcE 0.15 mg/kg I.V.): 92%
MHC concentration (MCHC) (StcE 0.15 mg/kg I.V.): 30.8 g/dL
Mean corpuscular hemoglobin (MCH) (StcE 0.15 mg/kg I.V.): 14.3 pg
Mean corpuscular volume (MCV) (StcE 0.15 mg/kg I.V.): 46.5 fL
Mean platelet volume (MPV) (StcE 0.15 mg/kg I.V.): 7.3 fL
Medium fluorescence reticulocytes (MFR) (StcE 0.15 mg/kg I.V.): 18.7%
Monocyte absolute (StcE 0.15 mg/kg I.V.): 133
Monocytes (StcE 0.15 mg/kg I.V.): 3%
Neutrophil absolute (StcE 0.15 mg/kg I.V.): 178
Neutrophils (StcE 0.15 mg/kg I.V.): 4%
Platelet count (StcE 0.15 mg/kg I.V.): 1345 K/μL
Platelet distribution width (PDW) (StcE 0.15 mg/kg I.V.): 8.9 fL
Platelet estimate (StcE 0.15 mg/kg I.V.): Adequate
Platelet-large cell ratio (P-LCR) (StcE 0.15 mg/kg I.V.): 8.7%
RBC morphology (StcE 0.15 mg/kg I.V.): Normal
Red blood cell (RBC) (StcE 0.15 mg/kg I.V.): 9.78 M/μL
Red cell distribution width (RDW) (StcE 0.15 mg/kg I.V.): 19.2%
Reticulocyte absolute (StcE 0.15 mg/kg I.V.): 442056 µL⁻¹
Reticulocyte count (StcE 0.15 mg/kg I.V.): 4.52%
White blood cell (WBC) (StcE 0.15 mg/kg I.V.): 4.44 K/μL
Basophil absolute (StcE 15 mg/kg I.V.): 0
Basophils (StcE 15 mg/kg I.V.): 0%
Eosinophil absolute (StcE 15 mg/kg I.V.): 39
Eosinophils (StcE 15 mg/kg I.V.): 1%
Hematocrit (HCT) (StcE 15 mg/kg I.V.): 58.9%
Hemoglobin (HGB) (StcE 15 mg/kg I.V.): 18.3 gm/dL
Immature reticulocyte fraction (IRF) (StcE 15 mg/kg I.V.): 52.3%
Low fluorescence reticulocytes (LFR) (StcE 15 mg/kg I.V.): 47.7%
Lymphocyte absolute (StcE 15 mg/kg I.V.): 1458
Lymphocytes (StcE 15 mg/kg I.V.): 37%
MHC concentration (MCHC) (StcE 15 mg/kg I.V.): 31.1 g/dL
Mean corpuscular hemoglobin (MCH) (StcE 15 mg/kg I.V.): 14 pg
Mean corpuscular volume (MCV) (StcE 15 mg/kg I.V.): 44.9 fL
Mean platelet volume (MPV) (StcE 15 mg/kg I.V.): 6.8 fL
Medium fluorescence reticulocytes (MFR) (StcE 15 mg/kg I.V.): 28%
Monocyte absolute (StcE 15 mg/kg I.V.): 315
Monocytes (StcE 15 mg/kg I.V.): 8%
Neutrophil absolute (StcE 15 mg/kg I.V.): 2128
Neutrophils (StcE 15 mg/kg I.V.): 54%
Platelet count (StcE 15 mg/kg I.V.): 82 K/μL
Platelet distribution width (PDW) (StcE 15 mg/kg I.V.): 7.2 fL
Platelet estimate (StcE 15 mg/kg I.V.): Decreased
Platelet-large cell ratio (P-LCR) (StcE 15 mg/kg I.V.): 5.5%
RBC morphology (StcE 15 mg/kg I.V.): Normal
Red blood cell (RBC) (StcE 15 mg/kg I.V.): 13.11 M/μL
Red cell distribution width (RDW) (StcE 15 mg/kg I.V.): 22.2%
Reticulocyte absolute (StcE 15 mg/kg I.V.): 860016 µL⁻¹
Reticulocyte count (StcE 15 mg/kg I.V.): 6.56%
White blood cell (WBC) (StcE 15 mg/kg I.V.): 3.94 K/μL
